Test results reported in patent US20220289837A1, “Cystic Fibrosis Transmembrane Conductance Regulator Stabilizing Agents” (VIB VZW, priority 2019, published 2022).
Numbering of substitutions follows the chain as printed.

B1: G3a: non-stabilizing nanobody, SEQ ID NO:50, recognizes the structurally diverse region of NBD1 (protein)
VHH: QVQLQESGGGLVQAGGSLRLSCTASGRAFSWYVMGWFRQAPGKEREFVATVSGNGSRRDYADSVKGRFTISRDNAKNTVYLQMNSLKPEDTAVYYCAASSTYYYTDPEKYDYWGQGTQVTVSS
modifications: G3a Nanobody
B2: D12: NBD1-specific CFTR-stabilizing nanobody, SEQ ID NO:2, binds epitope 1 (protein)
VHH: QVQLQESGGGLVQAGSSLRLACAATGSIRSINNMGWYRQAPGKQRGMVAIITRVGNTDYADSVKGRFTISRDNAKNTVYLQMNSLKPEDTATYYCHAEITEQSRPFYLTDDYWGQGTQVTVSS
modifications: D12 Nanobody amino acid sequence
B3: G5: NBD1-binding nanobody, SEQ ID NO:5, same binding site as T2a, T27 and D12 (protein)
VHH: B2 VHH with S16G, S30N, N33T, G46D, I50F, V54A, K75R, Q81R, T100A, Q102R
modifications: G5 Nanobody amino acid sequence
B4: T2a: NBD1-specific CFTR-stabilizing nanobody, SEQ ID NO:3, binds epitope 1 (protein)
VHH: QVQLQESGGGLVQAGGSLRLSCAASGSIFRIDAMGWYRQAPGKQRELVAHSTSGGSTDYADSVKGRFTISRDNAKNTVYLQMNSLKPEDTAVYYCNADVRTRWYASNNYWGQGTQVTVSS
modifications: T2a Nanobody amino acid sequence
B5: T8: nanobody, SEQ ID NO:7, binds epitope 2 including F508, stabilizes WT CFTR but not F508del (protein)
VHH: QVQLQESGGGLVQPGGSLRLSCAASGSTSSINAMGWYRQAPGKQREPVAISSSGGDTRYAEPVKGRFTISRDNAQNKVYLQMNSLKPEDTAVYYCWLNWGRTSVNSWGQGTQVTVSS
modifications: T8 Nanobody amino acid sequence

Tests used:
Assay type in all cases: cell-based
[1] = molecular target: T1, 3HA-F508del-CFTR (Homo sapiens, UniProt P13569, DEL508-508); assay: Cell-surface expression of F508del-CFTR in HEK-293T cells by flow cytometry; details: extracellular 3HA-tag, Nb transfected and/or VX-809
T1 construct: expressed in transfected cells
Experimental: (§1) HEK293T cells expressing F508del-CFTR with an engineered extracellular 3HA tag were transiently transfected with the stabilizing Nbs, as well as control Nbs. The effect on F508del mutant CFTR expression and maturation was measured by flow cytometry, Western Blot and fluorescence microscopy. Next, the effect of the transfection of each Nb was measured in the absence or presence of the correctors VX-809 (lumacaftor) or VX-661 (Tezacaftor).
(§2) Stable cell lines were generated by lentiviral transduction as described in (Ensinck, et al. 2020). CFTR variants were cloned to contain a triple hemagglutinin (3HA) tag in the fourth extracellular loop (EC-loop) of CFTR (Sharma, et al. 2004) for maturation and trafficking studies. For HS-YFP quenching studies, double stable cell lines were generated, co-expressing stable HS-YFP (Galietta, et al. 2001).

[2] = molecular target: T1, 3HA-F508del-CFTR; assay: CFTR protein maturation by Western Blot in 3HA-F508del-CFTR HEK-293T cells; details: for band C (fully glycosylated mature CFTR): FIG. 15, Nb transfected and/or VX-809; for mature CFTR protein band (band C): FIG. 17, Nb transfected and/or VX-661
Experimental: as §1, §2
Cell extracts were separated by SDS-PAGE on 7.5% polyacrylamide gel and transferred to nitrocellulose membrane (Bio-Rad) for immunodetection. After blocking for 1 h with 5% bovine serum albumin (BSA) in Tris-buffered saline added 0.05% Tween-20 (TBST), CFTR was detected using monoclonal antibody mAb 596, IgG2b (CFTR Antibody Distribution Program, dilution 1:46) for 1 h in blocking buffer. Blot was washed 3 times 5 min and incubated with anti-mouse-HRP antibody (Millipore, catalogue number: AP308P, 0.2 μg/ml) for 1 h in TBST. Membrane was washed 3 times for 5 min. CFTR was visualized by chemiluminescence using Luminata Forte Western HRP Substrate (Millipore) and detected with ImageQuant 400 (GE Healthcare).

[3] = molecular target: T1, 3HA-F508del-CFTR; assay: Immunostaining of cell-surface expression in F508del-CFTR HEK-293T cells
Experimental: as §2
For PM staining, cells were blocked with 1% BSA-PBS and incubated with HA.11 antibody (#901515, Biolegend 1:1000) at 4° C. on living cells. Next, cells were fixed (4% PFA) followed by Alexa-488 secondary antibody (#A-11001, Thermo Fischer Scientific, 1:500). Nuclei were stained with DAPI (4′,6-diamidino-2-fenylindole, #D1306, Thermo Fischer Scientific, 1:2000) and sections analyzed by confocal microscopy.

T1 sequence (P13569 with tags, fused parts or gaps DEL508-508): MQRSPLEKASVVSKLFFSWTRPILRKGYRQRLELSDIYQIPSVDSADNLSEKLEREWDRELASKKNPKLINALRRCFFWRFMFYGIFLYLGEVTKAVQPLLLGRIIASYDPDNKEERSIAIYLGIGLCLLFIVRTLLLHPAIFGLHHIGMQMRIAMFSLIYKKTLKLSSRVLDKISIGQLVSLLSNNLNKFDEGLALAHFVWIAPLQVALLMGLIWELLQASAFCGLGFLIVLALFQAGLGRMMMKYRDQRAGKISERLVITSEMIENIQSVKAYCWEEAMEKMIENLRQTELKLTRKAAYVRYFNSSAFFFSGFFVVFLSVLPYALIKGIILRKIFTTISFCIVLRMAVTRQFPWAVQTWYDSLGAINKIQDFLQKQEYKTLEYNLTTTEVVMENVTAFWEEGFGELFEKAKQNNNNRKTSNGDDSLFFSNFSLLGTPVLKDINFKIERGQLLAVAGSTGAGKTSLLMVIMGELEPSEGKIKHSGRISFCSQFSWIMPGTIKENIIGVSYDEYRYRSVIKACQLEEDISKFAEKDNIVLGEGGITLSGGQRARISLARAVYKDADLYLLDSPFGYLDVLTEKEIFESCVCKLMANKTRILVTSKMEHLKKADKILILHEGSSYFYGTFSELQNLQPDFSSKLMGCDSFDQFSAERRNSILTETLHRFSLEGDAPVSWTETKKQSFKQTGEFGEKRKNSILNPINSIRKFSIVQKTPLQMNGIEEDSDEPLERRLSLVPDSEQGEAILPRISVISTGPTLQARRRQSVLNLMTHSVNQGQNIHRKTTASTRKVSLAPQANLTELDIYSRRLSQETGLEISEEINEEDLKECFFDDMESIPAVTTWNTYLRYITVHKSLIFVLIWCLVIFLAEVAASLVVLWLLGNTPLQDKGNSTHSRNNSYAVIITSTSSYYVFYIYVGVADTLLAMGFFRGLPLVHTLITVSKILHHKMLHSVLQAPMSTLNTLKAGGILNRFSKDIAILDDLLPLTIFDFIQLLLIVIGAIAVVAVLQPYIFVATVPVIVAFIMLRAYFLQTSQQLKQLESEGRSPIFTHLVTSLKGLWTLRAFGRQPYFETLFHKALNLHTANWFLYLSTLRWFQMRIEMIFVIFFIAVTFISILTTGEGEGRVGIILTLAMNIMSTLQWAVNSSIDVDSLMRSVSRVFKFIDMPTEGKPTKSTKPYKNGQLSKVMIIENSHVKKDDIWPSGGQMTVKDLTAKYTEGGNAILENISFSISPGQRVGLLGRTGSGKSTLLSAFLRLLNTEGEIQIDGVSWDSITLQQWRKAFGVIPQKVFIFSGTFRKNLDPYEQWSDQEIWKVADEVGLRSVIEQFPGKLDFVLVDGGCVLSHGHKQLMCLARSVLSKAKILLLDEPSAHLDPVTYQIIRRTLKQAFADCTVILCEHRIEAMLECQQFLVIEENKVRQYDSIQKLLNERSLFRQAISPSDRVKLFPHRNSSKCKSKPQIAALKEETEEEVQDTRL

Molecule | cell-surface expression of F508del-CFTR [1] | band C (fully glycosylated mature CFTR) [2] | mature CFTR protein band (band C) [2] | cell-surface immunostaining [3]
B1 | No effect | no effect | detectable | 
B2 | moderate increase in surface expression |  |  | 
B3 | moderate increase in surface expression |  |  | 
B4 | moderate increase in surface expression | detectable | only a minor effect | moderate staining
B5 | No effect | no effect |  | 
